# Experimental data: the Immune Epitope Database (IEDB)
# Target: HLA-A*02:01
# Assay: IEDB peptide-MHC binding, purified MHC/competitive/radioactivity; ≥ and ≤ were set here for values at or beyond the usual limits of such assays
# Settings: source organism: Influenza A virus
row,Sequence,IC50 [nM]
1,QIAILVTTV,1090
2,QLMWALGENMA,848
3,FVEALARSI,1020

# Same assay, conditions: source organism: Mammarenavirus brazilense
row,Sequence,IC50 [nM]
1,ALTSLGLLYT,593
2,NLSNCVHPAV,153
3,FQLIFFLTLA,229
4,GLFQLIFFLT,1230
5,GQLFSFFEEV,33
6,ALIAVSLIA,1100

# Same assay, conditions: source organism: Mammarenavirus choriomeningitidis
row,Sequence,IC50 [nM]
1,NLNQVIQSV,28
2,SIISHNFCNL,3680

# Same assay, conditions: source organism: Mammarenavirus juninense
row,Sequence,IC50 [nM]
1,FQTVSFSMV,180
2,FQFFVFLAL,675
3,SLKAFFSWSL,1600

# Same assay, conditions: source organism: Mammarenavirus lassaense
row,Sequence,IC50 [nM]
1,RLLGTFTWTL,5.1

# Same assay, conditions: source organism: Mammarenavirus machupoense
row,Sequence,IC50 [nM]
1,NLTEMQEAV,547
2,DAMPGVLSYV,44
3,SLLPLSLLFL,7.3

# Same assay, conditions: source organism: Mammarenavirus whitewaterense
row,Sequence,IC50 [nM]
1,FLLRGPFEA,11
2,NASYITPYV,263
3,ALIAVSIISI,246

# Same assay, conditions: source organism: Vaccinia virus WR
row,Sequence,IC50 [nM]
1,SVEKIADDRI,3830
2,ATNIFPFFV,17
3,LMMSCISCI,12
4,KLHLISLLSL,97
5,YTYLIGEKI,5000
6,ILYDNVVTL,0.51
7,LMGTITLNA,173
8,IVWEKKSLV,2.1
9,ELQKFSFKI,167
10,LTDSLSSQM,4270
11,RLVDFFPDI,0.14
12,ILTLDIFYL,1.3
13,FAVQTIVFI,96
14,SILISLTNEI,283
15,YLFDYPHFEA,0.085
16,YMMGIEYGL,0.12
17,FLKYSRSKPA,3540
18,SQSERDNYI,1190
19,FLIVSLCPT,1.5
20,TLIDDPDNNL,781
21,FMAYTTSHI,3.2
22,VMTPSPFYTV,26

row,Sequence,IC50 [nM]
1,PMLYQLLEAV,1090
2,DALATFTVNI,178
3,TINCDVGYEV,385
4,STFIMLEGET,3480
5,NLNMTDGDSV,4320
6,IIDKDTNSV,62
7,FVIVIYIFTV,122
8,NIYCLEYINT,882
9,KILAIIFLVL,383
10,AIIDIEPDL,301
11,FTLTGSPSST,4460
12,YVMTMILFL,0.065
13,VTLLCVLPAV,3.8
14,VLITWLIDYV,0.8
15,DASLMDMITL,206
16,ILLFVIVIYI,7.8
17,TAYEINNEL,925
18,FVARVFLGL,19
19,IVEVPEDGI,2450
20,GLKKIIQRV,1700
21,PLLNIGIVL,1420
22,LIAFSSGTV,1810

row,Sequence,IC50 [nM]
1,FIVVATAAV,7
2,GLHCDFACLM,2800
3,AMIELCGAFL,0.78
4,FTTTSEVVDM,1890
5,RISMVISLL,1460
6,ELKETLLHV,4330
7,QLVDAIDNI,154
8,LLVAPMPTA,13
9,HISIKVKNHI,280
10,MLFVNDLMT,747
11,DLYDYITRI,1030
12,TIATYIDAL,610
13,NMISDTIFV,2.2
14,FMQRIISLSV,1.8
15,SMMNRDKIPI,1360
16,SLFSLLLVI,5.8
17,EVVDMLSTYL,1780
18,LLFLVCFPST,413
19,FVFRSPFIVI,170
20,NLPSSENYM,135
21,YLLCCNYKL,0.36
22,KLFYVYYNL,0.49

row,Sequence,IC50 [nM]
1,FLEGALIANI,30
2,MITMSAFLIV,386
3,KLMIYGLPWM,11
4,KLIGITAIM,20
5,SLYDQKEINA,267
6,FTLNHVLAL,1.5
7,NVFKYLTSV,0.75
8,RLESYHRFDM,3330
9,MLLHVGIPL,1.4
10,EQEFLTAAL,17
11,QTCAGVIEYA,359
12,KLTDKKTFI,1120
13,IIDFLEGAL,919
14,YASIINRDI,2230
15,SLSLHPLYV,9.8
16,VMDNDDNIL,719
17,KLITSAFDLL,457
18,RLYDYFTRV,11
19,SMFLMTATL,2.3
20,TMVDKPTEL,185
21,KTSTLIFFV,1
22,ILWFFNAMVL,11

row,Sequence,IC50 [nM]
1,KLVDICDRI,6.9
2,KMEYNLYAEL,297
3,FVADRLISEL,1880
4,FVCISYYFT,994
5,YANCSSISI,901
6,AVKDKNWTV,1810
7,RTLDTAIFT,3430
8,YLMDEEVPA,13
9,YTYAFTKKV,16
10,ILTAILFFM,35
11,LLFILFYFA,85
12,ILTREMGFL,2280
13,AIMESDSFL,173
14,RLYDLTRYA,4
15,SLSSIRFHI,11
16,LTIMGVIFLI,9.4
17,NLVKLSSYHV,1420
18,FIALWIPDL,1.7
19,STYWVIPWEL,76
20,VIHDYICWL,12
21,LLSKNTFYL,3.1
